This note sets out measurements from article PMC12853182, “Dynamic acetylation of a conserved lysine impacts glycerol kinase activity and abundance in the haloarchaeon Haloferax volcanii” (The Journal of Biological Chemistry, 2025).

This data set deals with the molecule itself. Briefly: SEC; Superdex 200 HR 10/300 GL, 50 mM HEPES pH 7.5, 2 M NaCl, 1 mM DTT, without glycerol; His-HvGK from cells grown in ATCC, GluMM or FruMM; mass by standard curve. A general note: In gel filtration, larger molecules generally elute earlier.

As a reminder, the stoichiometry N is the number of molecules, sites or subunits per partner or assembly.

B1: N-terminally His-tagged Haloferax volcanii glycerol kinase (His-HvGK), wildtype, purified from H. volcanii (enzyme, UniProt D4GYI5 1-510, looked up)
chain: MSGETYVGAIDQGTTGTRFMVFDHDGKVVANAYEKHEQIYPEPGWVEHDANEIWDNTKQVIDAALSSAGLDAEQLEAIGITNQRETTLVWDRETGQPIHNAIVWQDRRTTDRIETLEAEGKTDDVRAKTGLEPDAYFSATKAEWLLDNSDPIKLQRSRPEDIRDRAADGELAFGTIDTWLIYNLTGNHITDVTNASRTMLFNIHDMEWDDELLDEFNVPRELLPEVRPSSDDDYYGTTDADGFLGAEVPVAGALGDQQAALFGQTCFDAGDAKNTYGTGSFMLMNTGDEAVMSEHGLLTTVGFQRSGEPVQYALEGSIFITGAAIEWLEDMTLIDNAAESEKLARSVESTDGVYFVPAFTGLGAPHWDQRARGTIVGMTRGTRREHIVRATLESIAFQTRDVAEAMESDSEIDLSSLRVDGGAVKNNFLCQLQSNILDTEIVRPQVDETTALGAAYAAGLAVGYWETLDELRENWQVDREFAPKDPQNVEHRYGRWKEAVDRSLDWAREE
modifications: acetyl-lysine at K153, partial occupancy by AQUA-MS (50% in FruMM, 33% in ATCC rich medium, 17% in GluMM)
notes: Glycerol kinase (GlpK) of Haloferax volcanii, UniProt D4GYI5, gene hvo_1541; theoretical molecular weight 56.7 kDa monomer; The glpK gene was amplified and cloned into a pJAM503 backbone modified for an N-terminal His-tag fusion (pJAM4351); also called His-HvGK wt; HvGKHv; source: H. volcanii, expressed from a plasmid, cells grown in ATCC 974 rich medium, GluMM or FruMM; purified (Ni-NTA); not …
Take B1: the “stoichiometry N” value amounted to 2.
